From patent US20230144459A1 (published 2023)
Where no end group is shown, it is not given here.

Target: T1, BSA conjugated CD28 stalk region dimeric peptide (also: dimer, conjugated to BSA via C-terminal Lys)
T1 peptide: GKHLCPSPLFPGPSKPK
Test: ELISA

B1: antibody M9 (antibody, V domains shown)
VH: DVKLVESGGGLVKLGGSLKLSCVASGFTFSSYYMSWVRQTPEKRLEWVATISDGGDNTYYAGTVTGRFTISRDFAKNTLYLQMNSLTSEDTAVYYCARIHWPYYFDSWGQGTTLTVSS
VL: QFVLSQSPAILSASPGEMLTMTCRASSSVSYMNWYQQKPGSSPKPWIYATSDLASGVPARFSGSGSGTSYSLTISRVEAEDAATYYCQQWSSHPPTFGGGTKLEIR
B1 was tested, and the IC50 was 9 ng/mL.
